Measured values from patent US11224662B2, “Methods and therapeutics comprising ligand-targeted ELPs” (priority 2012, dated 2022).

Assays:
[1] = tested on: transformed mouse hepatocytes; experiment: Live cell uptake of rhodamine-conjugated ELP/knob-ELP in hepatocytes; type: cell-based; conditions: 10 μM rhodamine-labeled, 30 minutes at 37° C., confocal microscopy, LYSOTRACKER green
Experimental: To track cellular uptake, the ELPs S48148 and knob-S48148 were conjugated with a detectable label, NHS-Rhodamine (Thermo Fisher Scientific Inc, Rockford, Ill.) via covalent modification of primary amines at the amino end of the peptide. For S48148, the only available amine is at the amino terminus; however, knob-S48148 has an additional 11 lysine residues that may be sites of modification. The conjugation was performed in 100 mM borate buffer for 2 hours at 4° C., and the conjugated ELP was separated by size exclusion chromatography on a PD10 desalting column (GE Healthcare, Piscataway, N.J.).
To observe uptake into mouse hepatocytes, cells were cultured on 35 mm glass coverslip-bottomed dishes with medium [(DMEM (4.5 g/L) containing 10% fetal bovine serum, g/ml insulin, and 0.02 [μg/ml epidermal growth factor]. Uptake studies were conducted when hepatocytes reached 70% confluence. After washing with warm fresh medium, hepatocytes were cultured in medium containing 10 μM of either S48148 or knob-S48148 conjugated with rhodamine, and 75 nM LYSOTRACKER® green. After 30 minutes incubation at 37° C., the cells were rinsed with warm fresh medium to remove the free knob-ELP/ELP in the medium. Next cells were incubated with 75 nM LYSOTRACKER® green in a 37° C. incubation chamber. […]

[2] = Temperature-dependent optical density (turbidity) of ELP fusion peptides; type: physicochemical; conditions: 25 μM in PBS; for Transition Temperature T1: first phase transition; for Transition Temperature T1 / Transition Temperature T2: optical density; for Transition Temperature T2: second phase transition
Experimental: (§1) To explore the temperature-dependent phase behavior of the ELPs, optical density and hydrodynamic radius were observed over a range of temperatures. Knob-S96, S48148 and knob-S48148 were diluted to 25 μM in PBS on ice and the absorbance at 350 nm was monitored with a DU800 UV-Vis spectrophotometer (Beckman Coulter, Brea, Calif.) at a temperature gradient of 1° C./minute. […] Then 90 μL sample of was transferred into a 384 well microplate and covered with 20 μL mineral oil. The microplate and mineral oil were pre-chilled at 4° C. at least for 1 hour. The microplate was centrifuged at 4° C. to remove air bubbles from samples before and after addition of mineral oil. Then the sample was measured in a DynaPro plate reader (Wyatt Inc., Santa Barbara, Calif.) at temperature intervals of 1° C. The resulting hydrodynamic radii were collected and analyzed by Dynamics (Wyatt Inc., Santa Barbara, Calif.).

[3] = molecular target: T1, coxsackie adenovirus receptor (CAR) (Mus musculus, UniProt P97792); experiment: Competitive binding and uptake with anti-mouse CAR antibody in hepatocytes; type: cell-based; conditions: 20 μg/mL anti-mouse CAR antibody 30 minutes at 37° C., then 10 μM rhodamine-conjugated knob-S48I48
T1 construct: This study was carried out in transformed mouse hepatocytes because of the high expression of CAR; endogenous in cells; host or cells: transformed mouse hepatocyte cell line
T1 sequence (P97792 20-365): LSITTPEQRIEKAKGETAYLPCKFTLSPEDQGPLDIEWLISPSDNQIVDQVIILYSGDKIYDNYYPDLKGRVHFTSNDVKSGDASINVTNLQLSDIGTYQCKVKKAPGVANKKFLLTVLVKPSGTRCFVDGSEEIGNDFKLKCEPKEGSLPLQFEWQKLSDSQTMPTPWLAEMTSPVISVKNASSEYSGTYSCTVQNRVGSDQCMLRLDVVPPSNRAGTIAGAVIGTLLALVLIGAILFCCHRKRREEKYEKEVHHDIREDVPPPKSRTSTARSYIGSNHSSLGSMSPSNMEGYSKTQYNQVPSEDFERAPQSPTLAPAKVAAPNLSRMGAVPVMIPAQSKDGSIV
Experimental: After confirming that the goat anti-mouse CAR antibody has a high affinity with the mouse hepatocytes, the anti-mouse CAR antibody (0.2 mg/mL) was diluted with warm medium 10-fold and incubated with the hepatocytes for 30 minutes at 37° C. Knob-S48148 conjugated with rhodamine was then added to the medium at a concentration of 10 μM. After 30 minutes incubation with knob-S48148 and 75 nM LYSOTRACKER® green, the hepatocytes were rinsed, then incubated in fresh warm medium with 75 nM LYSOTRACKER® green and imaged as described above.

[4] = tested on: lacrimal gland acinar cells (LGACs); experiment: Suppression of transcytosis by Myosin Vb tail overexpression in LGACs; type: cell-based, rabbit; conditions: 30 μM Cy5-conjugated, 60 minutes at 37° C.
Experimental: To obtain the indication of lumen area of LGACs, the cells were also pre-infected with Adenovirus EGFP-actin and helper virus at a 37° C. incubator with 5% CO2 overnight. To avoid the clash of fluorescence colours, the knob-S48148 used in transcytosis inhibition was conjugated with Cy5. The LGACs were grown on 35 mm glass-bottomed dishes for two days. Adenovirus EGFP-actin and helper virus with or without adenovirus mCherry Myosin Vb tail were added into dishes and cultured overnight. After waiting for expression of fluorescence, confocal microscopy was used to make sure adenovirus mCherry-myosin Vb tail and adenovirus EGFP-actin grow in LGACs. On the third day, knob-S48148 conjugated with Cy5 was then mixed with the cold medium at a concentration of 30 μM, warmed to 37° C. and then added into dishes. After 60 minutes incubation in a 37° C. incubator with 5% CO2, LGACs were thoroughly rinsed with fresh warm medium then immediately imaged under a Zeiss LSM 510 Meta confocal microscope system, which is equipped with argon and red and green He—Ne lasers and mounted on a vibration-free table. All images were captured under the confocal microscope and processed using ImageJ (NIH, USA).

[5] = Dynamic light scattering of ELP nanoparticles; type: physicochemical
Experimental: as §1

[6] = tested on: LG of BALB/c mice; experiment: In vivo retention in the lacrimal gland after intra-lacrimal gland injection; design: species or system mouse; conditions: 5 μL of 50 μM rhodamine-labelled, 1 h, compared with untargeted S48I48
Experimental: Twelve-week-old male BALB/c mice were administered, by intra-lacrimal gland injection, 5 μL of 50 μM rhodamine-labelled S48148 or rhodamine-labelled knob-S48148 (red) combined with 50 μg CF-dextran (10 kD, green). After 1 h, mice were euthanized and the glands were retrieved, embedded into the O.C.T. compound (Tissue-Tek), and frozen on dry ice. The frozen tissue blocks were cut into 10 μm thick sections and imaged using confocal fluorescence microscopy. The white arrows indicate endocytosed S48148 or knob-S48148 nanoparticles. The bar represents 10 μm. […] For this experiment, the mice were euthanatized by intraperitoneal injection with 55 mg ketamine and 14 mg xylazine per kilogram of body weight, followed by cervical dislocation. 5 μL of 50 μM rhodamine labelled knob-S48148 or S48148 was injected into the lacrimal glands of mice. After 60 minutes, the tear was collected from one eye of mouse by adding Carbachol into the related lacrimal gland. For another gland, it was removed after the tear collection was done at the first eye. After removal, LGs were snap frozen and stored on the dry ice. The frozen glands were cut into 10 μm thick sections and mounted on glass slides. Then the sections were examined with a confocal laser scanning microscope (LSM) at excitation wavelengths of 488 and 534 nm.

B1: knob-G(VPGSG)48(VPGIG)48Y (SEQ ID. NO: 10) (protein)
chain: GVPGSGVPGSGVPGSGVPGSGVPGSGVPGSGVPGSGVPGSGVPGSGVPGSGVPGSGVPGSGVPGSGVPGSGVPGSGVPGSGVPGSGVPGSGVPGSGVPGSGVPGSGVPGSGVPGSGVPGSGVPGSGVPGSGVPGSGVPGSGVPGSGVPGSGVPGSGVPGSGVPGSGVPGSGVPGSGVPGSGVPGSGVPGSGVPGSGVPGSGVPGSGVPGSGVPGSGVPGSGVPGSGVPGSGVPGSGVPGSGVPGIGVPGIGVPGIGVPGIGVPGIGVPGIGVPGIGVPGIGVPGIGVPGIGVPGIGVPGIGVPGIGVPGIGVPGIGVPGIGVPGIGVPGIGVPGIGVPGIGVPGIGVPGIGVPGIGVPGIGVPGIGVPGIGVPGIGVPGIGVPGIGVPGIGVPGIGVPGIGVPGIGVPGIGVPGIGVPGIGVPGIGVPGIGVPGIGVPGIGVPGIGVPGIGVPGIGVPGIGVPGIGVPGIGVPGIGVPGIGY
notes: assembles into nanoparticles
In the case of B1, the “cellular uptake / fluorescence localisation” value [1] is reported as “significant cellular uptake”, the “Transition Temperature T1” value [2] is reported as 19.5 °C and the “Transition Temperature T1” value ([2]; listed as Knob-S48148) is reported as “around 19.5 °C”. The Critical aggregation temperature ([2]; optical density at 350 nm by UV-Vis spectrophotometer) was 19.5 °C, the “Transition Temperature T2” value [2] was 60 °C and the “Transition Temperature T2” value ([2]; listed as Knob-S48148) was “around 60 °C”. The “intracellular knob-S48I48 fluorescence after anti-mouse CAR antibody pre-incubation” value [3] was “reduced the intracellular punctate fluorescence”, the “transcytosis with overexpressed mCherry myosin Vb tail” value [4] was “significantly reduce the transcytosis” and the “size by dynamic light scattering (BSA; unimers of the ELPs)” value ([5]; BSA stable from 10 to 37° C., ELPs as unimers below assembly temperature) was “around 4 nm”. For the same molecule, the “critical nanoparticle temperature (CNT)” value ([5]; dynamic light scattering) was 19.5 °C, the “Hydrodynamic radius (nm) at 37° C.” value ([5]; dynamic light scattering, 25 μM in PBS, 37° C.) was 21.7 nm and the “hydrodynamic diameter of nanoparticles” value ([5]; dynamic light scattering, self-assembled nanoparticles) was “around 40 nm”. For the same molecule, the “retention in lacrimal gland (accumulation, surface association, internalization)” value [6] was “stronger apical-membrane/luminal accumulation, surface association, and internalization”.
